Numbering of substitutions follows the chain as printed.
Experiment: ELISA-based activity assay of antibody variants without a competition step
Format: binding
Parameters: key: +++: Variants with an average ratio above reference plus 2×SD; +/−: variants with a ratio below reference minus 2×SD; ++: All variants with a performance in between both thresholds; −: Variants with a ratio below 0.5
Details: Table 10, multiple substitutions within M14-G07, variant to reference ratio (reference 2-fold improved over wt)
Description: To determine the activity of the mutated antibody variants on compound from Example 1K an equilibrium or dissociation limited ELISA assay format was used. Briefly, MTP plates (Nunc Maxisorp black, 460518) were coated with 4 μg/ml streptavidin (Calbiochem, 189730) diluted in coating buffer (Candor Bioscience GmbH, 121500) and incubated over night at 4° C. After washing with PBST, plates were blocked with 100% Smart Block (Candor Bioscience GmbH, 113500) in PBST for 1 h at room temperature and the washing step was repeated. Plates were incubated with compound from Example 1K at varying concentrations (0.3-200 nM) for 1 h at 37° C., washed with PBST and antibody fragments were immobilized by adding 25 μl of the crude bacterial cultures for 1 h at room temperature. After washing with PBST a competition step or the immediate detection was performed. […] For the detection of the residually bound Fabs a HRP-coupled anti-lambda antibody (Sigma, A5175) diluted in 10% Smart Block in PBST was added for 1 h at room temperature. After washing 10 μM Amplex Red (Invitrogen, A12222) were added and incubated for 10 to 30 min at room temperature followed by measurement of the fluorescence signal.
Provided in Table 9 are several examples of single and/or double amino acid substitutions introduced into the heavy and/or the light chain of M14-G07 (wt). Performance of the variants was analyzed in quadruples in the ELISA without a competition step and the FXa deinhibition assay (FXa DIA). In the ELISA, averages were calculated and normalized to the respective average expression level. Overall performance of variants was evaluated by comparing the variant to wt ratio from 2-3 independent experiments. Variants with an average ratio above wt plus 2×SD (standard deviation of the ratio) were considered as improved and are marked with “++”, whereas variants with a ratio below wt minus 2×SD were considered as reduced in their binding affinity and are marked with “−”. All variants with a performance in between both thresholds are marked with “+/−”. Variants with average fluorescence counts below the negative control (non-expressing cells) plus 3×SD were considered as non-binding and marked with “−−” with none of the variants fulfilling this criteria. In the FXa deinhibition assay averages were calculated and overall performance of variants was evaluated by comparing the variant to wt ratio from 2-3 independent experiments. Variants with an average ratio above wt plus 2×SD were considered as improved and are marked with “++”, whereas variants with a ratio below wt minus 2×SD were considered as either reduced in their binding affinity or non-binding and are marked with “−−”. All variants with a performance in between both thresholds are marked with “+/−”. Variants not analyzed are marked with “nd” (not determined). CDRs were defined according to Kabat.
Provided in Table 10 are examples of combined amino acid substitutions within M14-G07 antibodies. While not every combination is provided in Table 10, it is contemplated that the anti-rivaroxaban antibody may comprise any combination of modifications provided. Variant performance was analyzed in quadruples in the ELISA without a competition step. Averages were calculated, average background signals determined on a streptavidin coated plate without compound from Example 1K were subtracted if the compound from Example 1K concentration used for coating was below 10 nM and signals were normalized to the respective average expression level. Overall performance of variants was evaluated by comparing the variant to reference ratio from 2-3 independent experiments using a 2-fold improved reference variant as compared to wt. Variants with an average ratio above reference plus 2×SD are marked with “+++”, whereas variants with a ratio below reference minus 2×SD are marked with “+/−”. All variants with a performance in between both thresholds are marked with “++”. […]

B1: M14-G07-3: antibody, Vh SEQ ID NO: 131, Vl SEQ ID NO: 132 (antibody, listed as Homo Sapiens, V domains shown)
VH: EVQLLESGGGLVQPGGSLRLSCAASGFTFSSYAMSWVRQAPGKGLEWVSGISGSGGSTYYADSVKGRFTISRDNSKNTLYLQMNSLRAEDTAVYYCARQGRTSFYLDVWGQGTLVTVSS
VL: QSVLTQPPSASGTPGQRVTISCSGSSRNIGSYYVYWYQQLPGTAPKLLIYDNRQRPSGVPDRFSGSKSGTSASLAISGLRSEDEADYYCVAWDDSWSGTWVFGGGTKLTVL
With B1 the ELISA was “+++”.

B2: M14-G07-16: antibody, Vh SEQ ID NO: 157, Vl SEQ ID NO: 158 (antibody, listed as Homo Sapiens, V domains shown)
VH: B1 VH with T28R, S49G
VL: B1 VL with Y32F, W96Y
For B2, the ELISA was “+++”.

B3: M14-G07-27: antibody, Vh SEQ ID NO: 179, Vl SEQ ID NO: 180 (antibody, listed as Homo Sapiens, V domains shown)
VH: B1 VH with S49G
VL: B1 VL with R27S, S31A, R53N, W96Y, T99H
With B3 the ELISA was “+++”.

B4: M14-G07-20: antibody, Vh SEQ ID NO: 165, Vl SEQ ID NO: 166 (antibody, listed as Homo Sapiens, V domains shown)
VH: B1 VH with T28R, S49G
VL: B1 VL with R27S, S31A, R53N, W96L
In the case of B4, the ELISA is reported as “+++”.

B5: M14-G07-4: antibody, Vh SEQ ID NO: 133, Vl SEQ ID NO: 134 (antibody, listed as Homo Sapiens, V domains shown)
VH: B1 VH with T28R, S49G
VL: B1 VL with S31A, W96Y
In the case of B5, the ELISA is reported as “+++”.

B6: M14-G07-11: antibody, Vh SEQ ID NO: 147, Vl SEQ ID NO: 148 (antibody, listed as Homo Sapiens, V domains shown)
VH: B1 VH with T28R, S49G
VL: B1 VL with S31A, Y32F, T99H
With B6 the ELISA was “+++”.

B7: M14-G07-12: antibody, Vh SEQ ID NO: 149, Vl SEQ ID NO: 150 (antibody, listed as Homo Sapiens, V domains shown)
VH: B1 VH
VL: B1 VL with R53N
In the case of B7, the ELISA is reported as “+++”.

B8: M14-G07-23: antibody, Vh SEQ ID NO: 171, Vl SEQ ID NO: 172 (antibody, listed as Homo Sapiens, V domains shown)
VH: B1 VH with T28R, S49G
VL: B1 VL with S31A, Y32F, R53N, W96L
With B8 the ELISA was “+++”.

B9: M14-G07-9: antibody, Vh SEQ ID NO: 143, Vl SEQ ID NO: 144 (antibody, listed as Homo Sapiens, V domains shown)
VH: B1 VH with T28R, S49G
VL: B1 VL with Y32F, R53N, D94V, W96L, T99H
With B9 the ELISA was “+++”.

B10: M14-G07-17: antibody, Vh SEQ ID NO: 159, Vl SEQ ID NO: 160 (antibody, listed as Homo Sapiens, V domains shown)
VH: B1 VH with S49G
VL: B1 VL with S31A, Y32F
For B10, the ELISA was “+++”.

B11: M14-G07-10: antibody, Vh SEQ ID NO: 145, Vl SEQ ID NO: 146 (antibody, listed as Homo Sapiens, V domains shown)
VH: B1 VH with S49G
VL: B1 VL with Y32F, R53N, T99H
For B11, the ELISA was “+++”.

B12: M14-G07-19: antibody, Vh SEQ ID NO: 163, Vl SEQ ID NO: 164 (antibody, listed as Homo Sapiens, V domains shown)
VH: B1 VH
VL: B1 VL with Y32F, W96L, T99H
In the case of B12, the ELISA is reported as “+++”.

B13: M14-G07-18: antibody, Vh SEQ ID NO: 161, Vl SEQ ID NO: 162 (antibody, listed as Homo Sapiens, V domains shown)
VH: B1 VH with T28R, S49G
VL: B1 VL with R53N
With B13 the ELISA was “+++”.

B14: M14-G07-25: antibody, Vh SEQ ID NO: 175, Vl SEQ ID NO: 176 (antibody, listed as Homo Sapiens, V domains shown)
VH: B1 VH with T28R, S49G
VL: B1 VL with R27S, S31A, R53N, W96Y
With B14 the ELISA was “+++”.

B15: M14-G07-8: antibody, Vh SEQ ID NO: 141, Vl SEQ ID NO: 142 (antibody, listed as Homo Sapiens, V domains shown)
VH: B1 VH with S49G
VL: B1 VL with S31A, Y32F, W96Y
In the case of B15, the ELISA is reported as “+++”.

B16: M14-G07-22: antibody, Vh SEQ ID NO: 169, Vl SEQ ID NO: 170 (antibody, listed as Homo Sapiens, V domains shown)
VH: B1 VH with S49G
VL: B1 VL with R27S, S31A, R53N
For B16, the ELISA was “+++”.

B17: M14-G07-14: antibody, Vh SEQ ID NO: 153, Vl SEQ ID NO: 154 (antibody, listed as Homo Sapiens, V domains shown)
VH: B1 VH with S49G
VL: B1 VL with W96Y
With B17 the ELISA was “+++”.

B18: M14-G07-24: antibody, Vh SEQ ID NO: 173, Vl SEQ ID NO: 174 (antibody, listed as Homo Sapiens, V domains shown)
VH: B1 VH
VL: B1 VL with R53N, W96L
For B18, the ELISA was “+++”.

B19: M14-G07-15: antibody, Vh SEQ ID NO: 155, Vl SEQ ID NO: 156 (antibody, listed as Homo Sapiens, V domains shown)
VH: B1 VH with S49G
VL: B1 VL with R27S, R53N, T99H
For B19, the ELISA was “+++”.

B20: M14-G07-5: antibody, Vh SEQ ID NO: 135, Vl SEQ ID NO: 136 (antibody, listed as Homo Sapiens, V domains shown)
VH: B1 VH with T28R
VL: B1 VL with W96Y
For B20, the ELISA was “+++”.

B21: M14-G07-6: antibody, Vh SEQ ID NO: 137, Vl SEQ ID NO: 138 (antibody, listed as Homo Sapiens, V domains shown)
VH: B1 VH with T28R, V37I, S49G
VL: B1 VL with W96Y
With B21 the ELISA was “+++”.

B22: M14-G07-7: antibody, Vh SEQ ID NO: 139, Vl SEQ ID NO: 140 (antibody, listed as Homo Sapiens, V domains shown)
VH: B1 VH with T28R, S49G
VL: B1 VL with R53N, T99H
In the case of B22, the ELISA is reported as “+++”.

B23: M14-G07-21: antibody, Vh SEQ ID NO: 167, Vl SEQ ID NO: 168 (antibody, listed as Homo Sapiens, V domains shown)
VH: B1 VH with T28R, S49G, R101E
VL: B1 VL with R27S, Q38H, R53N
For B23, the ELISA was “+++”.

B24: M14-G07-26: antibody, Vh SEQ ID NO: 177, Vl SEQ ID NO: 178 (antibody, listed as Homo Sapiens, V domains shown)
VH: B1 VH with S49G, R101K
VL: B1 VL with R27S, Y32F, R53N, W96Y
For B24, the ELISA was “+++”.

B25: M14-G07-13: antibody, Vh SEQ ID NO: 151, Vl SEQ ID NO: 152 (antibody, listed as Homo Sapiens, V domains shown)
VH: B1 VH with S49G
VL: B1 VL with Y32F
In the case of B25, the ELISA is reported as “+++”.

From patent publication US20140050743A1, “BINDING PROTEINS TO INHIBITORS OF COAGULATION FACTORS” (BAYER INTELLECTUAL PROPERTY GMBH, priority 2011, published 2014)
